Where “and” joins values, the source holds several entries; their conditions need not be identical. Equal values may be shown once. Entries after “also recorded” stand apart in the source; their conditions may differ.
Columns and labels:
[1] = biological target: T1, denatured soluble domain of the EGFR (sEGFR) (Homo sapiens, UniProt P00533); experiment: competition ELISA with biotinylated mAb806; assay type: binding; settings: after unlabeled blocking antibody
T1 construct: sEGFR is the recombinant extracellular domain (amino acids 1-621) of the wild-type EGFR); host or cells: CHO cells
Description: Briefly, the denatured soluble domain of the EGFR (sEGFR) was coated on to ELISA plates. The unlabeled 124 or 1133 antibodies were then added across the plate in increasing concentrations.

EGFR of A431 cells = biological target: T2, EGFR of A431 cells (Homo sapiens, UniProt P00533); experiment: ELISA of 806 reactivity in A431 lysate with AG1478; assay type: cell-based; settings: AG1478 0.5 μM and 5 μM, 10 min at 37° C.
T2 construct: endogenous in cells; host or cells: A431 human squamous carcinoma cells
Description: Cells were placed in serum free media overnight, then treated with AG1478 for 10 min at 37° C., washed twice in PBS, then lysed in 1% Triton and lysates prepared by centrifugation for 10 min at 12,000 g. […] Plates were then blocked with 10% serum albumin/PBS for 2 hours at 37° C. and washed twice. A 1:20 cell lysate was added in 10% serum albumin/PBS for 1 hour at 37° C., then washed four times. Anti-EGFR(SC-03; Santa Cruz Biotechnology Inc.) in 10% serum albumin/PBS was reacted 90 min at room temperature, the plate washed four times, and anti-rabbit-HRP (1:2000 if from Silenus) in 10% serum albumin/PBS was added for 90 min at room temperature, washed four times, and color developed using ABTS as a substrate.

U87MG.wtEGFR cells = experiment: binding to cell lines by FACS; set-up: species or system human
Description: (§1) Briefly, cells were labelled with the relevant antibody (10 μg/ml) followed by fluorescein-conjugated goat anti-mouse IgG (1:100 dilution; Calbiochem San Diego, Calif., USA; Becton-Dickinson PharMingen, San Diego, Calif., US) as described previously (Nishikawa et al., 1994). FACS data was obtained on a Coulter Epics Elite ESP by observing a minimum of 5,000 events and analyzed using EXPO (version 2) for Windows.
(§2) Stained cells were analyzed with a FACS Calibur using Cell Quest software (Becton-Dickinson PharMingen). […] 1. Mouse IgG2a or IgG2b was used as an isotype control.
(§3) Cell lines and antibodies were prepared as described in Example 1. […] Cells (1 3 10 6) were incubated with 5 μg/ml of the appropriate antibody or an isotype-matched negative control in PBS containing 1% HSA for 30 min at 4° C. After three washes with PBS/1% HSA, cells were incubated an additional 30 min at 4° C. with FTTC-coupled goat anti-mouse antibody (1:100 dilution; Calbiochem, San Diego, Calif.). After three subsequent washes, cells were analyzed on an Epics Elite ESP (Beckman Coulter, Hialeah, Fla.) by observing a minimum of 20,000 events and analyzed using EXPO (version 2) for Windows.

U87MG cells = experiment: binding to cell lines by FACS; set-up: species or system human; settings: parental U87MG
Description: as §1, §2, §3

HN5 and MDA-468 cells = experiment: binding to cell lines by FACS; set-up: species or system human; settings: HN5 and MDA-468, both cell lines
U87MG xenografts = experiment: s.c. xenograft therapy study; assay type: in vivo, nude mice; settings: 1 mg per injection
Description: (§4) Tumor cells (3×10^6) in […] of PBS were inoculated subcutaneously into both flanks of 4-6 week old female nude mice (Animal Research Centre, Western Australia, Australia). […] Treatment was continued for a total of 6 doses, 3 times per week for 2 weeks. In the established model, treatment was started when tumors had reached a mean volume of 65±6.42 mm^3 (U87MG.Δ2-7), 84±9.07 mm3 (U87MG), 73±7.5 mm^3 (U87MG.wtEGFR) or 201±19.09 mm^3 (A431 tumors). Tumor volume in mm^3 was determined using the formula […], where length was the longest axis and width the measurement at right angles to the length (Clark et al. (2000) Therapeutic efficacy of anti-Lewis (y) humanized 3S 193 radioimmunotherapy in a breast cancer model: enhanced activity when combined with Taxol chemotherapy. Clin. Cancer Res. 6, 3621-3628). Data was expressed as mean tumor volume±S.E. for each treatment group. Statistical analysis was performed at given time points using Student's t-test. Animals were euthanized when the xenografts reached an approximate volume of 1.5 cm^3 and the tumors excised for histological examination. This research project was approved by the Animal Ethics Committee of the Austin and Repatriation Medical Centre.

U87MG.wtEGFR xenografts = experiment: s.c. xenograft therapy study; assay type: in vivo, nude mice; settings: established model; day control animals were sacrificed; 1 mg injections
Description: as §4

A431 xenografts = experiment: s.c. xenograft therapy study; assay type: in vivo, nude mice; settings: for mean tumor volume: day 13, 1 mg injection
Description: as §4
AG1478 (4-(3-Chloroanilino)-6,7-dimethoxyquinazoline) is a potent and selective inhibitor of the EGFR kinase versus HER2-neu and platelet-derived growth factor receptor kinase (Calbiochem Cat. No. 658552). […] The results are illustrated in FIG. 12. […] 400 μg AG1478 was administered at 0, 2, 4, 7, 9, and 11 days post xenograft.
With respect to “(iv),” different groups of mice received either 0.5 mg/injection of each mAb, or 0.25 mg/injection of each mAb.
Finally, the fourth group of mice, which had been inoculated with A431 cells, received injections as in groups I and III, at 8, 10, 12 and 14 days after inoculation. At the start, the average tumor size was 71 mm^3.
To establish xenografts, mice were injected subcutaneously into the right and left inguinal mammary line with 1×10^6 A431 adenocarcinoma cells or 1×10^6 U87MG.de2-7 glioma cells in 100 μl of PBS. Tumor volume (TV) was calculated by the formula […] where length was the longest axis and width the measurement at right angles to length. […] Therapy was administered on days 6, 8, 11, 13, 15 and 18 for A431, and days 4, 6, 8, 11, 13 and 15 for the U87MG.de2-7 cell lines respectively. Mean±SEM tumor volumes until termination of the experiments due to ethical considerations of tumor burden are presented in FIG. 91 for the A431 xenograft until day 25, and in FIG. 92 for U87MG.de2-7 xenografts until day 31.

U87MG brain xenografts = experiment: intracranial glioma xenograft treatment; assay type: in vivo, nude mice; settings: i.p. day 0 through 14

B1: mAb806: murine IgG2b monoclonal antibody, clone 806, ATCC PTA-3858; VH SEQ ID NO:2, VL SEQ ID NO:4 (antibody, listed as Mus musculus, V domains shown)
VH: MRVLILLWLFTAFPGVLSDVQLQESGPSLVKPSQSLSLTCTVTGYSITSDFAWNWIRQFPGNKLEWMGYISYSGNTRYNPSLKSRISITRDTSKNQFFLQLNSVTIEDTATYYCVTAGRGFPYWGQGTLVTVSA
VL: MVSTAQFLAFLLLWFPGARCDILMTQSPSSMSVSLGDTVSITCHSSQDINSNIGWLQQRPGKSFKGLIYHGTNLDDEVPSRFSGSGSGADYSLTISSLESEDFADYYCVQYAQFPWTFGGGTKLEIKR
With B1 the “Binding of biotin-labeled 806” value [1] was “None”, the “mAb806 binding in the presence of increasing amounts of AG1478” value (EGFR of A431 cells) was “significantly increased” and the FACS staining (U87MG.wtEGFR cells) was “stained; also recorded: reacted weakly”. For the same molecule, the FACS staining (U87MG cells) was “binding levels similar to the control antibody; also recorded: not with U87MG cells”, the FACS staining (HN5 and MDA-468 cells) was “clearly stained” and the “effect on xenograft growth” value (U87MG xenografts; established model) was “no effect”. For the same molecule, the “effect on xenograft growth” value (U87MG xenografts; preventative model) was “no effect”, the mean tumor volume (U87MG.wtEGFR xenografts) was 468±78.38 mm^3 and 500±80 mm^3 and the mean tumor volume (A431 xenografts; established model) was 451±65.58 mm^3 and 450±70 mm^3. For the same molecule, the “effect on xenograft growth” value (A431 xenografts; preventative model, 0.1 mg) was “significantly inhibited; also recorded: inhibited significantly”, the “reduction of tumor volume” value (A431 xenografts; preventative model, 0.1 mg mAb806, 400 μg AG1478) was “significant reduction of tumor volume” and the mean tumor volume (A431 xenografts; preventative model) was 260±60.33 mm^3 and 260±60 mm^3. The effect on survival (U87MG brain xenografts) was “did not extend survival”.
